Assay results taken from PMC10140330.

Biological target: SmT1-R, resistin-trimerized SARS-CoV-2 reference strain spike ectodomain (SARS-CoV-2 | human) (UniProt P0DTC2)
Test: SPR; Biacore T200, 25°C, PBS with 0.05% Tween 20 and 3.4 mM EDTA; spike trimer captured through its resistin domain on an immobilised anti-resistin VHH-Fc; monomeric ACE2 flowed over, single cycle kinetics, three concentrations, 5-fold dilutions from 200 nM; 1:1 binding model

Work on “recombinant human ACE2, purified monomeric (from UniProt Q9BYF1 18-805) (receptor)” yielded a Kd of 28 nM.
